Measurements as given in PMC6949598, “Structure-based mechanism of cysteine-switch latency and of catalysis by pappalysin-family metallopeptidases” (IUCrJ, 2020).

Target: T1, mature wild-type mirolysin (Tannerella forsythia, UniProt A0A0F7IPS1 55-331)
T1 construct: the model holds Pro58-Pro327; Holds one catalytic zinc and two calcium ions; disulfides Cys243-Cys271 and Cys262-Cys291; The promirolysin constructs were made in E. coli BL21 (DE3) as fusions with N-terminal GST and a PreScission site; also called mature mirolysin; CD; source: recombinant, prepared as previously described (Koneru et al., 2017)
Test: crystal structure; mature mirolysin incubated at 1:2 molar ratio with BFO_2662, which was cleaved; sitting drop, 4 °C, protein ~12 mg/ml in 5 mM Tris HCl, 50 mM NaCl, 5 mM CaCl2, pH 8.0; reservoir 40% ethanol, 5% PEG 1000, 0.1 M phosphate-citrate pH 4.2; 1.5 Å; one complex per asymmetric unit
Details: both partners purified

B1: tetradecapeptide K110-K123 of small lipoprotein BFO_2662 (peptide)
peptide: KRDPVYFIKLSTIK
notes: segment K110-K123 of small lipoprotein BFO_2662, Tannerella forsythia; numbered Lys1-Lys14 in the structure; only the first seven residues were assigned unambiguously from the map; A citrate (CIT-1) in sub-site S1 belongs to molecule B of the model but is no part of the peptide; also called Lys1-Lys14; product; source: cleavage product of BFO_2662, cut by mirolysin during crystallization …
B1: binds.
